# Data reported in patent US20100273722.
# Test: sedimentation equilibrium AUC, self-association, 25 C
substance,measurement,value
pancreatic peptide YY (PYY),% monomer at 30 µM,94%
